Here are results for three molecules from patent US5985616, “Chimeric mammalian NPY Y5 receptors” (Schering Corporation, dated 1999).

Assay [1] has as its target T1, human NPY Y5 receptor (human, UniProt Q15761). As to the kind of experiment: competition with 0.1 nM [125I]PYY, membranes of COS1 cells transiently expressing the receptor.
Procedure: (§1) PYY and 2.5–5 ug of membrane protein (50 ul final volume). […] PYY and various concentrations of competing peptides (200 ul final volume). […] Binding assays were incubated at room temperature for 90 minutes and were terminated by rapid vacuum filtration through glass fiber filters in 96-well format (Multiscreen FB Filter Plates, Millipore, Bedford, Mass. or Unifilter-96 GF/C, Packard, Meriden, Conn.) Prior to filtration the glass fiber filters were pretreated with 100 ul of 0.3 % polyethylenimine. Each filter was then washed 3 times with 100 ul of PBS. Radioactivity trapped on the filters was then counted by standard gamma counting techniques.
(§2) Peptide affinities were measured in competition binding assays with membranes from COS1 cells transiently expressing the human Y_5 and rat/human hybrid Y_5 receptors.
In assay [2] the target is T2, rat/human hybrid NPY Y5 receptor (rat/human chimera).
T2 chain: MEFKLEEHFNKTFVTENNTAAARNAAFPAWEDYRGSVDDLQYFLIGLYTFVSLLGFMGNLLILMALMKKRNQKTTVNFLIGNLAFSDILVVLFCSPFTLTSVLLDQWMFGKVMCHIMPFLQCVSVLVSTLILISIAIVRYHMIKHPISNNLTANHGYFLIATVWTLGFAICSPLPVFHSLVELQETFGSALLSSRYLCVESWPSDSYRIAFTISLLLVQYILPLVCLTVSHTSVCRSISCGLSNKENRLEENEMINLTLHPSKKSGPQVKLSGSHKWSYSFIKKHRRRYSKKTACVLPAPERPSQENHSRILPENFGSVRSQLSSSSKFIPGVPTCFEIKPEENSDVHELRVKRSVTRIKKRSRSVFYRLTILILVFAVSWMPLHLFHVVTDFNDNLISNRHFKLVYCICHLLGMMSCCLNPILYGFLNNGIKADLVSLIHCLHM
Described as above.
Procedure: as §1, §2

The target in assay [3] is T1, human NPY Y5 receptor. As to the kind of experiment: radioligand binding at 100 pM [125I]PYY, membranes of COS1 cells transiently expressing the construct.
Procedure: as §1
(§3) All receptors were expressed transiently in COS1 cells.
The target in assay [4] is rat NPY Y5 receptor expressed from pCR3.1-rY5A (rat, UniProt Q63634). The description is as above.
Procedure: as §1, §3
For assay [5], the target named is T2, rat/human hybrid NPY Y5 receptor. The assay is described as above.
Procedure: as §1, §3

B1: Rat PP (ligand)
peptide: APLEPMYPGDYATHEQRAQYETQLRRYINTLTRPRY
A word on the Ki: it is the equilibrium dissociation constant of an inhibitor or competing ligand from its target. Higher therefore signals weaker binding. Take B1: the inhibitory constant (Ki) came to 60 nM in the assay with human NPY Y5 receptor [1] and 75.6 nM in assay [2].

B2: [125I] porcine peptide YY (ligand)
peptide: not shown
modifications: 125I label
Turning to B2, the “Level of Expression (fmol/mg protein), radioligand bound at 100 pM” value in the assay with human NPY Y5 receptor [3] is 103 fmol/mg protein; in assay [4], 100 fmol/mg protein; in assay [5], 298 fmol/mg protein.

B3: Human PP (ligand)
peptide: APLEPVYPGDNATPEQMAQYAADLRRYINMLTRPRY
Consider B3, for which the inhibition constant Ki in assay [2] turned out to be 2.86 nM.
